According to patent US20220119490A1 (Genentech, published 2022):
Values belong to the binder of their own block, whether it stands above or below them.

Experiments:
[1] = biological target: T1, PTPRD G203E K204E variant extracellular domain (human, UniProt P23468 21-1265); experiment: extracellular interaction screen: pentameric PTPRD variant ECD on ECD-Fc prey (FIG. 5L)
T1 construct: extracellular domain; also called G203E/K204E double mutant; IG2 mutant
T1 sequence (looked up): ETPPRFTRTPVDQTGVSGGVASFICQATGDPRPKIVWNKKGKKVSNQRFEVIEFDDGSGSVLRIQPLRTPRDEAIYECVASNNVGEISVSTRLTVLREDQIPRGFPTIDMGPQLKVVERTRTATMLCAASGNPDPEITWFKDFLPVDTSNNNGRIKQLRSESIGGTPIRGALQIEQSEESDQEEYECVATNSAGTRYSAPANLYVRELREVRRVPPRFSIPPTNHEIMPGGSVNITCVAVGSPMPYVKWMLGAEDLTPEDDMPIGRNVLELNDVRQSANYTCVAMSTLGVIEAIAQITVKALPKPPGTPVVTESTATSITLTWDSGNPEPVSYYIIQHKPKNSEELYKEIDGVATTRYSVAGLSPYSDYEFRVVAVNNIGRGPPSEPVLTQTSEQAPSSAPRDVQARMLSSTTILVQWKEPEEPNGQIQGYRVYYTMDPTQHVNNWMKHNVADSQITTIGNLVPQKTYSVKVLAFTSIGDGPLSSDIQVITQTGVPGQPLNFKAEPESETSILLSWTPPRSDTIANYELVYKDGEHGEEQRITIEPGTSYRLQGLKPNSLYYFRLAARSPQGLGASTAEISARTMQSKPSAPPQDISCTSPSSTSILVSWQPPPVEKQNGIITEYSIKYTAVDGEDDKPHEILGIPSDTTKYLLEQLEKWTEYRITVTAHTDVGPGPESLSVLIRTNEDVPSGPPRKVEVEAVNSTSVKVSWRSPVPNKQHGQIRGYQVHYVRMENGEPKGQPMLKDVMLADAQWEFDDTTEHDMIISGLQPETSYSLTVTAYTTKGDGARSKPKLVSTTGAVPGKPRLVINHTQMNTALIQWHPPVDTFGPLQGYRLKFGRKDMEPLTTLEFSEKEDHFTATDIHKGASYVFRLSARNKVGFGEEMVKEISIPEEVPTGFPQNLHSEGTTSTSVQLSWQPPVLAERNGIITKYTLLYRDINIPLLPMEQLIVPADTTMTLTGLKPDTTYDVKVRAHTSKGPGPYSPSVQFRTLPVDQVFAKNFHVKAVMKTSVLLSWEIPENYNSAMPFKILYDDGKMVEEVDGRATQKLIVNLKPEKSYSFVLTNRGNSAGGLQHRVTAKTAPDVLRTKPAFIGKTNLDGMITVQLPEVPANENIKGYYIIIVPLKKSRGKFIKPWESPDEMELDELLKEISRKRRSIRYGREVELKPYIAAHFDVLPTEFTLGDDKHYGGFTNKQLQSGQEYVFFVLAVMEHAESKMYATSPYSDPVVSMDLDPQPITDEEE

[2] = biological target: T2, PTPRD extracellular domain (wild type) (human, UniProt P23468 21-1265); experiment: SPR, LRFN4 ECD-Fc immobilized, PTPRD ectodomain-Fc as analyte
T2 construct: extracellular domain; Ectodomain-Fc in SPR; also called wt PTPRD; PTPRD ectodomain fused to an Fc tag
T2 sequence (looked up): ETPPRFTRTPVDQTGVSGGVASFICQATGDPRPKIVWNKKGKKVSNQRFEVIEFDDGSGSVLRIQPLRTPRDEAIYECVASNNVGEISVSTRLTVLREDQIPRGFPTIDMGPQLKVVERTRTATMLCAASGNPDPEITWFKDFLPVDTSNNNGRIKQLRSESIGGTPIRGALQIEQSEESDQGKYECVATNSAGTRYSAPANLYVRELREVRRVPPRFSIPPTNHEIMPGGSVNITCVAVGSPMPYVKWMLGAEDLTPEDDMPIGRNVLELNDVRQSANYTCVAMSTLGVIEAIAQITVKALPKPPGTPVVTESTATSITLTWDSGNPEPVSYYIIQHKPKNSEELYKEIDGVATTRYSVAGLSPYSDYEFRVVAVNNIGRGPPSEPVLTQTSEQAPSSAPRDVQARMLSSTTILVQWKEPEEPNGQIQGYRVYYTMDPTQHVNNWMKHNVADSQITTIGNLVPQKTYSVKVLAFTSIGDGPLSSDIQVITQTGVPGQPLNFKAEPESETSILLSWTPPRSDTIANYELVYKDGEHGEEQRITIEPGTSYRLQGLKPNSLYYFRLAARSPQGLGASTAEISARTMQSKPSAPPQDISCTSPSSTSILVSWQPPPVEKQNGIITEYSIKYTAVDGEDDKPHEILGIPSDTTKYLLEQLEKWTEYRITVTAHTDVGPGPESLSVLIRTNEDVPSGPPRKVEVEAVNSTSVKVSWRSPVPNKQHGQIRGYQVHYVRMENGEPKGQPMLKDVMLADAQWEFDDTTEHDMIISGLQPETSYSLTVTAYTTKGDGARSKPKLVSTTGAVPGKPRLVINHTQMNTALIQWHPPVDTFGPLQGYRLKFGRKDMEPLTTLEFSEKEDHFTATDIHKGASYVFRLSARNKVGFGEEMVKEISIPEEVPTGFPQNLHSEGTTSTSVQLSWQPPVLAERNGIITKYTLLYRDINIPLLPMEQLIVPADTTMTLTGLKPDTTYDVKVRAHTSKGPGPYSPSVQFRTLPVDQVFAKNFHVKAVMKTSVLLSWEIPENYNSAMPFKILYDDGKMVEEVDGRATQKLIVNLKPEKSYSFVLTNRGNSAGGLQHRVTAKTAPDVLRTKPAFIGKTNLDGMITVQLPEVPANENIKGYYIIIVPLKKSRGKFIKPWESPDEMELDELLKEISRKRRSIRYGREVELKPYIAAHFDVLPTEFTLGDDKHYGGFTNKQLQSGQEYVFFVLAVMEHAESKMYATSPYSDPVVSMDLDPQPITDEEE
Experimental: (§1) The indicated protein (expressed as an ECD-Fc fusion protein) was immobilized on a sensor chip and PTPRD (expressed as an ectodomain fused to an Fc tag) was injected at the indicated concentrations.

[3] = biological target: T2, PTPRD extracellular domain (wild type); experiment: SPR, ILRAPL1 (IL1RAPL1) ECD-Fc immobilized, PTPRD ectodomain-Fc as analyte
Experimental: as §1

[4] = biological target: T2, PTPRD extracellular domain (wild type); experiment: SPR, SLITRK1 ECD-Fc immobilized, PTPRD ectodomain-Fc as analyte
Experimental: as §1

[5] = biological target: T2, PTPRD extracellular domain (wild type); experiment: SPR, SLITRK4 ECD-Fc immobilized, PTPRD ectodomain-Fc as analyte
Experimental: as §1

[6] = biological target: T2, PTPRD extracellular domain (wild type); experiment: SPR, LRFN1 ECD-Fc immobilized, PTPRD ectodomain-Fc as analyte
Experimental: as §1

binding result [1]: no binding
binding result [2]: binds
B1: LRFN4 extracellular domain (receptor, human, UniProt Q6PJG9 17-518, looked up)
chain: CPLPCVCQNLSESLSTLCAHRGLLFVPPNVDRRTVELRLADNFIQALGPPDFRNMTGLVDLTLSRNAITRIGARAFGDLESLRSLHLDGNRLVELGTGSLRGPVNLQHLILSGNQLGRIAPGAFDDFLESLEDLDLSYNNLRQVPWAGIGAMPALHTLNLDHNLIDALPPGAFAQLGQLSRLDLTSNRLATLAPDPLFSRGRDAEASPAPLVLSFSGNPLHCNCELLWLRRLARPDDLETCASPPGLAGRYFWAVPEGEFSCEPPLIARHTQRLWVLEGQRATLRCRALGDPAPTMHWVGPDDRLVGNSSRARAFPNGTLEIGVTGAGDAGGYTCIATNPAGEATARVELRVLALPHGGNSSAEGGRPGPSDIAASARTAAEGEGTLESEPAVQVTEVTATSGLVSWGPGRPADPVWMFQIQYNSSEDETLIYRIVPASSHHFLLKHLVPGADYDLCLLALSPAAGPSDLTATRLLGCAHFSTLPASPLCHALQAHVLGGTL
notes: extracellular domain; ECD-Fc; also called LFRN4

binding result [3]: binds
B2: IL1RAPL1 extracellular domain (receptor, human, UniProt Q9NZN1 19-357, looked up)
chain: LKVVTKRGSADGCTDWSIDIKKYQVLVGEPVRIKCALFYGYIRTNYSLAQSAGLSLMWYKSSGPGDFEEPIAFDGSRMSKEEDSIWFRPTLLQDSGLYACVIRNSTYCMKVSISLTVGENDTGLCYNSKMKYFEKAELSKSKEISCRDIEDFLLPTREPEILWYKECRTKTWRPSIVFKRDTLLIREVREDDIGNYTCELKYGGFVVRRTTELTVTAPLTDKPPKLLYPMESKLTIQETQLGDSANLTCRAFFGYSGDVSPLIYWMKGEKFIEDLDENRVWESDIRILKEHLGEQEVSISLIVDSVEEGDLGNYSCYVENGNGRRHASVLLHKRELMYT
notes: extracellular domain; ECD-Fc; also called ILRAPL1

binding result [4]: binds
B3: SLITRK1 extracellular domain (receptor, human, UniProt Q96PX8 18-622, looked up)
chain: NVTGDVCKEKICSCNEIEGDLHVDCEKKGFTSLQRFTAPTSQFYHLFLHGNSLTRLFPNEFANFYNAVSLHMENNGLHEIVPGAFLGLQLVKRLHINNNKIKSFRKQTFLGLDDLEYLQADFNLLRDIDPGAFQDLNKLEVLILNDNLISTLPANVFQYVPITHLDLRGNRLKTLPYEEVLEQIPGIAEILLEDNPWDCTCDLLSLKEWLENIPKNALIGRVVCEAPTRLQGKDLNETTEQDLCPLKNRVDSSLPAPPAQEETFAPGPLPTPFKTNGQEDHATPGSAPNGGTKIPGNWQIKIRPTAAIATGSSRNKPLANSLPCPGGCSCDHIPGSGLKMNCNNRNVSSLADLKPKLSNVQELFLRDNKIHSIRKSHFVDYKNLILLDLGNNNIATVENNTFKNLLDLRWLYMDSNYLDTLSREKFAGLQNLEYLNVEYNAIQLILPGTFNAMPKLRILILNNNLLRSLPVDVFAGVSLSKLSLHNNYFMYLPVAGVLDQLTSIIQIDLHGNPWECSCTIVPFKQWAERLGSEVLMSDLKCETPVNFFRKDFMLLSNDEICPQLYARISPTLTSHSKNSTGLAETGTHSNSYLDTSRVSISVLVP
notes: extracellular domain; ECD-Fc

The remaining lines, values behind:

B4: SLITRK4 extracellular domain (receptor, human, UniProt Q8IW52 19-618, looked up)
chain: DSDISVEICNVCSCVSVENVLYVNCEKVSVYRPNQLKPPWSNFYHLNFQNNFLNILYPNTFLNFSHAVSLHLGNNKLQNIEGGAFLGLSALKQLHLNNNELKILRADTFLGIENLEYLQADYNLIKYIERGAFNKLHKLKVLILNDNLISFLPDNIFRFASLTHLDIRGNRIQKLPYIGVLEHIGRVVELQLEDNPWNCSCDLLPLKAWLENMPYNIYIGEAICETPSDLYGRLLKETNKQELCPMGTGSDFDVRILPPSQLENGYTTPNGHTTQTSLHRLVTKPPKTTNPSKISGIVAGKALSNRNLSQIVSYQTRVPPLTPCPAPCFCKTHPSDLGLSVNCQEKNIQSMSELIPKPLNAKKLHVNGNSIKDVDVSDFTDFEGLDLLHLGSNQITVIKGDVFHNLTNLRRLYLNGNQIERLYPEIFSGLHNLQYLYLEYNLIKEISAGTFDSMPNLQLLYLNNNLLKSLPVYIFSGAPLARLNLRNNKFMYLPVSGVLDQLQSLTQIDLEGNPWDCTCDLVALKLWVEKLSDGIVVKELKCETPVQFANIELKSLKNEILCPKLLNKPSAPFTSPAPAITFTTPLGPIRSPPGGPVPLS
notes: extracellular domain; ECD-Fc
binding result [5]: binds

B5: LRFN1 extracellular domain (receptor, human, UniProt Q9P244 32-536, looked up)
chain: QPCPGRCICQNVAPTLTMLCAKTGLLFVPPAIDRRVVELRLTDNFIAAVRRRDFANMTSLVHLTLSRNTIGQVAAGAFADLRALRALHLDSNRLAEVRGDQLRGLGNLRHLILGNNQIRRVESAAFDAFLSTVEDLDLSYNNLEALPWEAVGQMVNLNTLTLDHNLIDHIAEGTFVQLHKLVRLDMTSNRLHKLPPDGLFLRSQGTGPKPPTPLTVSFGGNPLHCNCELLWLRRLTREDDLETCATPEHLTDRYFWSIPEEEFLCEPPLITRQAGGRALVVEGQAVSLRCRAVGDPEPVVHWVAPDGRLLGNSSRTRVRGDGTLDVTITTLRDSGTFTCIASNAAGEATAPVEVCVVPLPLMAPPPAAPPPLTEPGSSDIATPGRPGANDSAAERRLVAAELTSNSVLIRWPAQRPVPGIRMYQVQYNSSVDDSLVYRMIPSTSQTFLVNDLAAGRAYDLCVLAVYDDGATALPATRVVGCVQFTTAGDPAPCRPLRAHFLGGTM
notes: extracellular domain; ECD-Fc; also called LFRN1
binding result [6]: binds
